Laboratory results as given in PMC3459099.

Target: ERp57-Cys57Ser–Cys406Ser double mutant (mutated ERp57) (human) (UniProt P30101)
Experiment: ELISA

“recombinant N-terminal region of β-DG, β-DG(654–750), biotinylated (domain or fragment)” showed a Kd of 10 µM.
